Here are results for 1 molecule from patent US20120003244A1 (published 2012).

The target in the experiment is T1, c-myc-tagged wild-type human APCDD1 (human, UniProt Q8J025 27-514, limits assumed).
T1 construct: Expressed from pCXN2.1 in HEK293T cells; also called c-myc-tagged APCDD1; not shown: C-terminal c-myc tag
The experiment in a line: immunoprecipitation with anti-c-myc antibody from co-transfected HEK293T cells, western blot with anti-HA. The text has this: To examine the 130 KDa fragment, we overexpressed both HA-tagged and c-myc-tagged APCDD1 in HEK293T cells, and performed immunoprecipitation using an anti-c-myc antibody, which was followed by western blot with an anti-HA antibody. […] By contrast, only a faint fragment, 52 KDa in size, was detected in total cell lysate of the L9R mutant construct-transfected cells (FIG. 3C; lane 2, top panel). In addition, a 65 KDa fragment was detected in the medium of the wild-type and the control L9V mutant APCDD1 construct-transfected cells, while no fragment in the medium of the L9R mutant construct-transfected cells (FIG. 3C; lanes 1-3, bottom panel).
Immunoprecipitation. Expression plasmids of HA-tagged APCDD1 and c-myc-tagged APCDD1 (4 μg each) were co-transfected into HEK293T cells as described above. 48 h after the transfection, the cells were harvested and homogenized in lysis buffer (50 mM Tris-HCl (pH 8.0), 150 mM NaCl, 0.5% NP40, and 1× Complete Mini Protease Inhibitor Cocktail). Total cell lysates were collected by centrifugation at 14,000 rpm for 20 min at 4° C. The samples were incubated with 0.3 μg of normal rabbit IgG (Santa Cruz Biotechnology) and 10 μl of protein A/G plus agarose (Santa Cruz) for 30 min at 4° C., and centrifuged at 10,000 rpm for 1 min at 4° C. […]

B1: C-terminal HA-tagged wild-type human APCDD1 (SWAMP-HA; pCXN2.1-Wt-SWAMP-HA) (receptor)
chain: not shown
notes: Expressed from pCXN2.1 in HEK293T cells; also called HA-tagged APCDD1; HA-tagged SWAMP; not shown: C-terminal HA (hemagglutinin) tag
As for B1, the binding result is “binds”.
